Laboratory results from article PMC3432753.

Molecular target: Recombinant human endostatin (human) (UniProt P39060)
Test: SPR

UniProt P39060, sequence (P39060 1572-1754): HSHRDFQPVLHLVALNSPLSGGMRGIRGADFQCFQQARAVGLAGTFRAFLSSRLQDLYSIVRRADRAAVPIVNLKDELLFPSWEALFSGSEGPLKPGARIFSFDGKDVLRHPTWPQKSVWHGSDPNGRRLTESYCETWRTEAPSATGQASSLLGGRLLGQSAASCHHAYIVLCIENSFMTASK

Substance: α3β1 integrin (Millipore) (from UniProt P26006 33-1051; P05556 21-728) (complex)
- Kd: 9 nM
